Results as given in patent US11708609.

Biological target: human recombinant FOXO1 (Origene #TP300477) (UniProt Q12778)
Sequence (Q12778 whole entry): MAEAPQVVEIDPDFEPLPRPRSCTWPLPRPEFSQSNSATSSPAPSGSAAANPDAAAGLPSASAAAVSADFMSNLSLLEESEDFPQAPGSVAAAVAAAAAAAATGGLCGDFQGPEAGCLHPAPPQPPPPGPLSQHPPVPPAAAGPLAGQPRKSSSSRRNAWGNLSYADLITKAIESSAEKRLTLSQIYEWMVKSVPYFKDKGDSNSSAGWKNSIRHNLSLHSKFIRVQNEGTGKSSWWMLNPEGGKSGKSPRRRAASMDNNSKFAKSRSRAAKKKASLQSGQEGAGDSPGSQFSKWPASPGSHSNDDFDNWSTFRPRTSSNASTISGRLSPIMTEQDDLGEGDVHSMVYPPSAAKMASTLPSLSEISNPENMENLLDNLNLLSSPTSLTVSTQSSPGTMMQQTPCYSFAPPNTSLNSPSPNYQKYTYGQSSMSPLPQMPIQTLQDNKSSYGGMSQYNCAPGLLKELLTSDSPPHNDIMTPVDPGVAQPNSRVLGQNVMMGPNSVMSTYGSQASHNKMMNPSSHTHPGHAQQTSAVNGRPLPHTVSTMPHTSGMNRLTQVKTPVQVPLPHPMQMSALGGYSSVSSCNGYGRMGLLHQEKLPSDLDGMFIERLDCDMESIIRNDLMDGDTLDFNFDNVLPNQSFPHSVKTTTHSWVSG

microtubule-associated Ser/Thr kinase 4 (MAST4), immunoprecipitated from lysates of neuron-differentiated SH-SY5Y cells or of human temporal lobe autopsy samples, sequence (chain, as listed by the source): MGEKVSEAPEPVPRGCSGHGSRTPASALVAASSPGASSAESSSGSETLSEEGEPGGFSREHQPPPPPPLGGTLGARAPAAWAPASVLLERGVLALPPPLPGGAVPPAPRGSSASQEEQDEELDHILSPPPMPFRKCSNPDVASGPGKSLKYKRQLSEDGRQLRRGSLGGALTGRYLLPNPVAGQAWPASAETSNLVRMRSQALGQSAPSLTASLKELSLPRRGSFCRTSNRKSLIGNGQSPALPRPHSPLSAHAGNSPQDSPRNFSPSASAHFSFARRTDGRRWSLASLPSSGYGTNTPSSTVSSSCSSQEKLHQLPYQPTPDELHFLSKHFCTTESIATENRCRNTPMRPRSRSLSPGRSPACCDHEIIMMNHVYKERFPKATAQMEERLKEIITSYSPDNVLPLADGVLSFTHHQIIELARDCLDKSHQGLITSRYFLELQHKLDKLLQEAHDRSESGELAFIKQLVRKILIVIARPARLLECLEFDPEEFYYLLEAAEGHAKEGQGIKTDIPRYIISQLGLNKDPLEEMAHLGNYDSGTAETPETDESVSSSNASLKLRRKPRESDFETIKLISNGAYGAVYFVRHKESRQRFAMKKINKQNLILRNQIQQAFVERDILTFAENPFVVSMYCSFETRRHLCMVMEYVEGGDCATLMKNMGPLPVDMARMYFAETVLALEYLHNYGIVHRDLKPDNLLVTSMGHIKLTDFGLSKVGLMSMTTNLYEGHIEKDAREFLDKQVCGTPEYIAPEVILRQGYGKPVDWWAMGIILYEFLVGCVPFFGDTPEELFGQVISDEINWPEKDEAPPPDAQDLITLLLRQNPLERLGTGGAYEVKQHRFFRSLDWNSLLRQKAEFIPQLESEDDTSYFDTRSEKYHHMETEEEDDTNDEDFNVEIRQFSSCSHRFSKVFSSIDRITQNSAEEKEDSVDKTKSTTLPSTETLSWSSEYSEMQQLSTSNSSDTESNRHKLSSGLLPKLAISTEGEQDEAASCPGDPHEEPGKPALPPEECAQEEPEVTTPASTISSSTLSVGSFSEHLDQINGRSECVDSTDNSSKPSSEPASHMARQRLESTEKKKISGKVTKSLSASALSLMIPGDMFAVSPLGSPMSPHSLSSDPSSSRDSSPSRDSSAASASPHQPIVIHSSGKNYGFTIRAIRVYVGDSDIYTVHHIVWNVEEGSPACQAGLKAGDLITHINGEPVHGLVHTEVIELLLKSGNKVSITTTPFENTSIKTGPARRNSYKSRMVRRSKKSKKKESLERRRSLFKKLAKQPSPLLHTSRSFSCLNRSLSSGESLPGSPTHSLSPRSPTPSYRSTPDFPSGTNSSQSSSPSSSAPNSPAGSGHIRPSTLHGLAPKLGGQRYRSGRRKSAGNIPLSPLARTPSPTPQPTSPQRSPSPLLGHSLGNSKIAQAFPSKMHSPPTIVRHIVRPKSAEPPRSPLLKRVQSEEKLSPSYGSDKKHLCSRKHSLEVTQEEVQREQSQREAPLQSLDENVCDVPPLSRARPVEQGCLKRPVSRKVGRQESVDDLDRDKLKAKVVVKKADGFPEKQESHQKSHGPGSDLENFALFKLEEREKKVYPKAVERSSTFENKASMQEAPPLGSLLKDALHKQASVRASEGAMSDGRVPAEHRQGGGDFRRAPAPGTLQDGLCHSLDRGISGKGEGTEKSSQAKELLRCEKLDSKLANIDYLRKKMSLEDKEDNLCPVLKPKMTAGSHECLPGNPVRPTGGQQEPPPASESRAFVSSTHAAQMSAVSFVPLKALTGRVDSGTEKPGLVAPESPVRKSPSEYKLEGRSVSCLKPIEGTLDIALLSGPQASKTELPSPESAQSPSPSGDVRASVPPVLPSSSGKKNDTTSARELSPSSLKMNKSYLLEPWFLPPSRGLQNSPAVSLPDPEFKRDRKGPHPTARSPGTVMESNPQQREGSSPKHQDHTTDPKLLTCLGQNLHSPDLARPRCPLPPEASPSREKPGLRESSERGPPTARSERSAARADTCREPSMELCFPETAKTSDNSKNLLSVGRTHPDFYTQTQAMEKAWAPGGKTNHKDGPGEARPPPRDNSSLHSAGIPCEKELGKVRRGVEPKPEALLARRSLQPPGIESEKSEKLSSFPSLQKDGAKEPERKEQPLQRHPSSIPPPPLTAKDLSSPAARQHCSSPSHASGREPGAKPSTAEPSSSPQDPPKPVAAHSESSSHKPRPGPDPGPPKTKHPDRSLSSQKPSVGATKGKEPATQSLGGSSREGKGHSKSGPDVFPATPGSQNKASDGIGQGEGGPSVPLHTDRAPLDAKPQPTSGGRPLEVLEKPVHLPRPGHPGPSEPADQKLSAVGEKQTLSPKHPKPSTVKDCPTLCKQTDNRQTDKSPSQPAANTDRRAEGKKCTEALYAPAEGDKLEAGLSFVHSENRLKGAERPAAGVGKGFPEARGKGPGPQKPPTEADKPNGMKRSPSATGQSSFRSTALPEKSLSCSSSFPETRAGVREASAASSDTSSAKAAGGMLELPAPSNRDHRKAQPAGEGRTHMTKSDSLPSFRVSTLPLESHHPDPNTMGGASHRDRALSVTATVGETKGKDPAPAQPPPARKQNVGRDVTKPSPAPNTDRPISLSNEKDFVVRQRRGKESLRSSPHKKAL

Substance	FOXO1 phosphorylation in an in vitro kinase assay with immunoprecipitated MAST4 mutant	FOXO1 phosphorylation (pSer-FOXO1) in an in vitro kinase assay with immunoprecipitated MAST4 and recombinant FOXO1
MAST4E682A, putative kinase-null MAST4 mutant	Immunoprecipitates of MAST4E682A did not phosphorylate FOXO1 (not shown)	–
microtubule-associated Ser/Thr kinase 4 (MAST4), immunoprecipitated from lysates of neuron-differentiated SH-SY5Y cells or of human temporal lobe autopsy samples	–	Increased FOXO1 phosphorylation was observed in MAST4 immunoprecipitates from cells treated with 5 µM but not 50 µM 27OHC
